These results are taken from paper doi:10.1101/2025.10.16.681972 (bioRxiv, 2025).

The assay deals with recombinant soluble form (ectodomain) of human MERTK (Homo sapiens, UniProt Q12866). The experiment in a line: SPR.
Sequence of recombinant soluble form (ectodomain) of human MERTK (Q12866 21-505): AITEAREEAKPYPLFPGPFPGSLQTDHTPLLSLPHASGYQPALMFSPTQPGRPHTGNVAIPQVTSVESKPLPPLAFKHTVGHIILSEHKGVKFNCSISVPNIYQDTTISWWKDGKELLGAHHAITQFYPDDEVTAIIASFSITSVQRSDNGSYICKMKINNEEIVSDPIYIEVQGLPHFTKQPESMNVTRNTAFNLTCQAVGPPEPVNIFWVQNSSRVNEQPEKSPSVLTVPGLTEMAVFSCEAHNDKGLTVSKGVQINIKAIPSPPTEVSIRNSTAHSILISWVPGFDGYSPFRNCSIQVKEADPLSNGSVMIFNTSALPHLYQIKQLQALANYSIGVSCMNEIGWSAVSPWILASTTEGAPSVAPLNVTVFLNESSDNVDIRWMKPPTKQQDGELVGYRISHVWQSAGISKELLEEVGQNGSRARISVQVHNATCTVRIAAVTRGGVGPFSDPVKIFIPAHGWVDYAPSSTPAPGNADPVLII

B1: recombinant mAb745 (anti-MERTK, variable regions of mAb745 on human IgG1 and kappa constant regions) (antibody, V domains shown)
VH: DVQIQESGPGLVKSSQSLSLTCTVTGYSITNDYAWNWIRQFPGNKLEWMGYISYNGNTFYNPSLKSRISITRDTSKNQFFLQLSSVTTEDTATYYCGRLLPVSYAMDYWGQGTSVTVSS
VL: DVVMTQTPLSLPVSLGDQASISCRSSQSLVHSNGNTYLHWYLQKPGQSPKLLIYKVSNRFSGVPDRFSGSGSGTDFTLKISRVEAEDLGVYFCYQSTHVPWTFGGGTKLEIK
B1: the binding result is given as “binds”.
